Drawing on the supplement of paper PMC12042874, this text covers amyloid nucleation score for 100 substances.

± gives the uncertainty stated by the source.

A short description of this data set: amyloid nucleation score (Sup35N fusion, yeast selection) (log enrichment); library NNK3; higher = more nucleation; inactive = no reads after selection. The gist of the method:
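The nucleation score equals the log enrichment of output over input reads from DiMSum, centred on the mode score of non-aggregating sequences. It was computed only for sequences with 100 or more input reads. The reads came from Illumina sequencing of plasmid inserts from psi-negative yeast expressing Sup35N fused to peptides of 20 random codons, induced with 100 μM copper sulfate for 24 hours and grown 7 days at 30°C without adenine and uracil.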
Consider VVDILFKMHEVDSVI, for which the amyloid nucleation score entry is “inactive”. The value for VQRISTIMINV was “inactive”. As to VPWGIVSFA, the amyloid nucleation score entry was “inactive”. Take LHKALQYTKTLSESRRLCNR: the amyloid nucleation score entry was “inactive”.

With NGCSS, the amyloid nucleation score result is “inactive”. Then FDGTVVSR, with “inactive”. Consider ITARLVTS, for which the amyloid nucleation score entry was “inactive”. Then HCRDEYYIYNRI, with “inactive”. The value for VLGDSNFF was “inactive”; that for SIYCANQRSLVYHYVLAFTT was “inactive”. The value for HLLTLTI was 0.501 ± 0.26. Consider SLAGEHPRPIVG, for which the amyloid nucleation score entry is “inactive”. As for ERRASLGYNHIL, the amyloid nucleation score result is “inactive”. The value for DQCVLRLPFVIRGSHVSGRK was “inactive”; that for VLWDGF was “inactive”. In the case of VVVMPTNSECCYQYGGMFPM, the amyloid nucleation score entry was “inactive”. Then FQCWYNKIRKFWVVHRWVSM, with “inactive”. Then LCCKIHSRTKMRRGSC, with “inactive”; and AWASIDVSNAL, with “inactive”; and MFSSLV, with “inactive”.

On to ERMRLNARFSTHLE, for which the amyloid nucleation score result is “inactive”. Regarding LFGCEQRYP, the amyloid nucleation score entry is “inactive”.

As to LYVFCTSY, the amyloid nucleation score result was “inactive”.

Substance DEEQF gave an amyloid nucleation score of -0.143 ± 0.34.

In the case of PHIGYCMW, the amyloid nucleation score entry is “inactive”.

Turning to YAYEIRRLT, the amyloid nucleation score result was “inactive”. As for SSTTE, the amyloid nucleation score entry was “inactive”.

For YTRGTWS, the amyloid nucleation score result was “inactive”. Turning to YEVPFSNASWRDGQMRCRCS, the amyloid nucleation score entry was “inactive”.

On to NLEEHIRCFKGDRDPYLFF, for which the amyloid nucleation score entry is “inactive”. Take FLVIPWDEEKCRLSDLFASN: the amyloid nucleation score result was “inactive”.

As to YNGLVGLSNPCTIWESGWVW, the amyloid nucleation score entry is “inactive”. Then RCCFWVMLFNYARGKRTWCH, with “inactive”; and KKCHGMMCNTITRTINILC, with “inactive”. Then SIKFYLRLMTSLKVKLY, with “inactive”; and SLMKPKSVMEAKVIRINLCL, with 0.494 ± 0.28. The value for SYSTARDSVGLSSWSSLIKW was “inactive”. On to YDNLTARESSYFIFFCFLVY, for which the amyloid nucleation score result is “inactive”. Turning to KRITLWCLCFRSYDHEMMV, the amyloid nucleation score result was “inactive”. Take FLKYTITHLCSRPRIYLGIS: the amyloid nucleation score worked out at 0.16 ± 0.22.

In the case of VSLRQVS, the amyloid nucleation score entry is “inactive”. PNRQTLFSSIRF showed an amyloid nucleation score of 0.092 ± 0.56. In the case of TFWFD, the amyloid nucleation score result was “inactive”. VGSPWSYKG: the amyloid nucleation score result is “inactive”.

As to FPHRMLRPCYESDTFPPWTG, the amyloid nucleation score entry is “inactive”. Then LVIVRWNAVYTYIGFDF, with “inactive”; and RSRNAIVLGACYC, with “inactive”. The value for MPSRHFLGY was “inactive”; that for FFCNLSSILRWGN was 0.572 ± 0.18; that for TFRIVRFCLKILTCRTC was “inactive”. As for KASVSTRFMII, the amyloid nucleation score result is “inactive”.

In the case of ARDCGRFIFLWWRYSLTKRH, the amyloid nucleation score entry is “inactive”. For the substance EATPSSIQAQ, the amyloid nucleation score result is “inactive”.

Turning to HTYDCAAFCPAGAGNR, the amyloid nucleation score entry is “inactive”. The value for YCIVLKYNQLLSTMSANNMY was 1.19 ± 0.1.

Regarding ATPKPKGHY, the amyloid nucleation score result is “inactive”. With VCFFRVKRSYSNIFYTRRCR, the amyloid nucleation score result is “inactive”. Consider GRSYREIMDSIFCGQFFYNK, for which the amyloid nucleation score amounted to 2.45 ± 0.077. For WGVSLLVFHVTKQVRNRFYY, the amyloid nucleation score result was “inactive”. Then TQNNNGRVETPGASTPKHPC, with “inactive”; and IVSMDQESTLQWNVPGYVLL, with “inactive”. With CVIITFESRILDELICDTVR, the amyloid nucleation score entry is “inactive”.

Take LWTALK: the amyloid nucleation score entry was “inactive”.

In the case of KLRTSGAILVF, the amyloid nucleation score entry is “inactive”. The value for SNTCHLINAKVDPVHERMLS was 0.176 ± 0.85.

Regarding LSWFIYWDKIRGWSKMTIGQ, the amyloid nucleation score result was “inactive”. For the substance VCDTM, the amyloid nucleation score result is “inactive”.

For the substance HLWTFEITSTGYL, the amyloid nucleation score result was “inactive”. Turning to VTVMT, the amyloid nucleation score result is “inactive”. The value for MMSMNMNLSYCYGFMGSHYS was 1.47 ± 0.097; that for CLLRSSCGWMCLRTGTHCVV was 0.729 ± 0.25; that for VFMCLANYMFPIPGNRHVPP was 0.053 ± 0.75. As to MLDAQSASWYYFRGSLFDVR, the amyloid nucleation score result was “inactive”. Then YYVIDILVW, with “inactive”. Then PGFLGVPTACPLVSYDAVYP, with “inactive”; and MCFEVLHACRYFVRHSSQRI, with “inactive”; and HKFDNKIRPTWYVVLPIFNA, with “inactive”. Regarding CGWIFNLYSRRIQALEGRAS, the amyloid nucleation score entry was “inactive”. MGHHRCYVRVSKKDYWF: the amyloid nucleation score result is “inactive”. With MIYSHDHTYHSCLLDAVSCR, the amyloid nucleation score entry is “inactive”. Then GVPMCSWGMIILL, with “inactive”; and IDARRFQGFNISSYMN, with 0.372 ± 0.28. Then LVLRFTSIDFKLFRRHST, with “inactive”; and FMMFIL, with 1.42 ± 0.1; and HRMCVRRFRVFRESVEEVHF, with “inactive”.

As to GNCLIRLTYR, the amyloid nucleation score result is “inactive”. Consider KLTFNRLLKT, for which the amyloid nucleation score result is “inactive”. The value for QCSMDRNT was “inactive”; that for IIYRKVVKRCAWITDKEIPG was “inactive”; that for YETVMFSS was “inactive”.

SWLCPFNGA: the amyloid nucleation score result was “inactive”.

DALAVSINCSLFRCCSM registered an amyloid nucleation score of 3.3 ± 0.055.

As to QSLIEPSD, the amyloid nucleation score result is “inactive”. Then DDMTYGSVCNKSGRTPLLPS, with “inactive”; and EGRRPKYIGNESRYNMYHPY, with “inactive”. With DCILGGSMMGRNTSMSAHDN, the amyloid nucleation score result was “inactive”. The value for RHVLQILLSKKRDATMLPNY was “inactive”; that for FLDIRMMIRRLTGGPESVSL was “inactive”. For LQRGTQVYRCSLSFVRNVRF, the amyloid nucleation score entry is “inactive”.

As to GFTRFFYLSRLMVGNMI, the amyloid nucleation score result was “inactive”.
